# Experiment: soluble on expression in E. coli; label from the status in PepcDB or PDB records
row,Sequence,soluble on expression in E. coli
1,MAHHHHHHMGTLEAQTQGPGSMKISFSEIIHNALKEDLGDKGDITTNSILINEKVNFAINTRENLVVCGIPILEEVFNMNKEHVKYEIHKKDGDITGKNSTLVSGEALAIYLLPIERVILNFIQHASGIASITRQFVDEVSGTKVKIRSTRKTTPGLRMLDKYSVCIGGGESYRDNLCDGVLIKDNHIASCGSITLAIQRLRKNLKNEYIAIECDNISQVEESLSNNVDMILLDNMSISEIKKAVDIVNGKSVLEVSGCVNIRNVRNIALTGVDYISIGCITNSFQNKDIGLDIEYNNNK,soluble
2,GPGSMKRLLDSAKHLLRGGSLGYLASGEPYHPFGEDFGLTVFPDYIQLREKLALRSGYVDVYTQRSASIKLSDGRFQLPPLPKHSFLPLVERLEQDGIVPRGWLNNQTANLYEPEDFIRAHIDNLFVYDDIFAVISLGANALLRFVHVQNGEELDVVIPDGSVYIMSGPSRYVYFHMVLPVEAQRVSIVFRRSILNSDGGFRPVSTPLGDLMPYRSTQILNTLYAKQIGGVRVAVDDKYLEKEEIGAFDTGKWVKGLHPLRDWTLLSQLDEDEARVLELREKRYLDVDLSWRFTELRKRYKELEDMLRV,not soluble
3,MGSSHHHHHHSSGLVPRGSEHLKNISPIDGRYKKACGELSAFFSEHALIKHRIIVEVRWLLFLNEEELFFEKVTDHSVEVLNQIATNITDSDIARVKAIEEETNHDVKAVEYFVKEKLKNSKREDLLKIKEYVHYLCTSEDINNVAYATCLKACLNDVVIPCLEKIMLKLKDLAVEYSHVPLLSRTHGQPASSTTFGKEMANFYARIHHHVGVIRRVKVCAKFNGAVGNFNAHKVASKDTDWVNTIGLFLKKHFNLTYSIYCTQIQDHDYICELCDGLARANGTLIDLCVDIWLYISNNLLKLKVKEKEVGSSTMPHKVNPIDFENAEGNLHIANAFFKLFSSKLPTSRLQRDLSDSTVLRNIGSSLAYCLIAYKSVLKGLNKIDIDRRNLEEELNQNWSTLAEPIQIVMKRHNYVDAYEELKQFTRGKVIDQKIMQEFIKTKCAFLPQDVVDQLLELTPATYTGYADYLAKNVERLSGERD,soluble
4,AIAAAVKDSCGKGEMATGNGRRLHLGIPEAVFVEDVDSFMKQPGNETADTVLKKLDEQYQKYKFMELNLAQKKRRLKGQIPEIKQTLEILKYMQKKKESTNSMETRFLLADNLYCKASVPPTDKVCLWLGANVMLEYDIDEAQALLEKNLSTATKNLDSLEEDLDFLRDQFTTTEVNMARVYNWDVKRRNKDDSTKNKA,soluble
5,MGSDKIHHHHHHMIAQVEPFHAIAISRLAHDLEAAGQSVIHMEFGQPSTGAPAEAIALAHEVLDNEAMGYWESVPLKERIARSYAENHGVKVEREQVILTCGASPAFVMALSCLFRPGARIALARPGYVAYRNSLKAMYLEPVEMECGPAERFQVTAAAVDALDPVPDGLIVASPANPTGTIIEPGELAAIAEVCCRKGIRVISDEIYHGLSYGKAAASMLEYLPDAVIVNSFSKYFSMAGWRLGWLVVPPSLIDAARARMGSLFLTPPVLAQKAGLKAFDCRAELDGHVETYARNRAILLEALPQMGLGRIAPPDGAFYIYADASEFTDDSLALCEALLRDTGVATAPGLDFDPVNGKRFIRFSFAVSTPLIEEAVRRIGPWFAARRAVSPAQAPS,not soluble
6,MQANAIDFENYELLQDDVCARRIVAAKQKLGKRAIILAHHYQRADVYCHADLTGDSLKLSYLAARTDTEFLVFCGVHFMAEVADILSSSEQTVILPDLSAGCSMADMANLTKVERVWRELAEVLDPDERVTPVTYINSSADLKAFCGQHDGIVCTSSNAVKILQWAFSRREKVLFFPDQHLGRWSGYKMGLSPDEMPVWDFDEPMGGLTPEQIEKARILLWKGHCSVHQMFQPQHILRFRNQYPDGLVISHPECSFEVCKASDYVGSTEYIINTIRAAKSGTRWLVGTELNLVGRIAEEFKAEGKIIQFMSPMVCMCSTMARIDPQHLAWSLENLAEGRVVNQIRVPEPQASLAKLTLEKMLEVSKLEHHHHHH,not soluble
7,MSLTGELHPIFNADALGASHRLHAHTHGDGTKIVGYYNKHLRLGRFTEQTYKSWHAEVDAKASSILNGSGSLLAFYGDHIIEVVDREGKKITLTVNGGIKQVLWHPLAYLDSCLVVLTGQETIEIYELNEPRYEKPTLVLNEPTSQLGISSRVIDITNIAFAPDGLSLYLFSTSEGGDVHVICPLLPSRIKADRAKWARQWNKATALYSTLTKDTPDDAKVATIEYLEFVTQLLQAIEKNGSDGELVIPEHRRRTISQGPYNIHGFPEKLYSAVGTKLTVVPLGESEAHLLLLSFDDSTNILLFPSTEVLMSWTKDLKNAYTLMLVEEFTATGTAFATCDGVAVLGIDSAQRVEIPYLQALEDCIRDCNLAALQDINFTSSICKIPGKFHSVARFNAPGNKGIILVGDHHAKIVPSTEAAKSDTETELDSQPGKEPTYTVCFPNSLEEILNTNKELQRRKHQPLPLVPPALKNEGHHHHHH,soluble
8,MAQRGRKPKPTALKILEGNPGKRPLNEDEPKPEKKAPKCPGWLDAEAKKEWRRMSKQLEAMGILTEIDMAAFAGYCQAYARWKEAEEFITKHGTIVKTPSGYWQQVPQVSIAQTYLKIMNRFCEQFGLTPSARSRIVTDNINDEEDPMELILYKGGSKSV,soluble
9,MKKEEGLTENTGLPRKLLEKHDPWPAYVTYTSQTVKRLIEKSKTRELECMRALEERPWASRQNKPSSVIQPKRRKSSKSSGKAVFRDTLSESTLSMWGAYSVLAMAPTMIPEPTHLHADSRDCPTENYNKIIFARKPMMRMLPTVRY,not soluble
10,MGSDKIHHHHHHMLSSAEKVKGQGVASAYRELVNLLEERYKNEIDMKINSFEKSDITHYHTVDFRFFLSTFFKKKRGVRVGYVHFLPETMEGSLKLPWIARVVFYKYLIGFYKRMDEIVVVNPSFIPKLTAYNIPAEKIHYIPNFVSKKSFFPISKGEKELARAKYEIPADKFTVIGIGQVQHRKGVLDFIEVAKQLPDVQFVWAGGFSFGKITSGYEELKKIYDNPPSNVKFIGIVDRSEMNSCINMADVFFMPSYNELFPMAILEAMSCDVPILLRNLDLYEEILDGYYVKEVDNPGFIRAIERLENDTNYYNEMLQASKRGAAYYSEDRLAEIWLDFYQGLLTKE,not soluble
11,TMAGRSMQAARCPTDELSLSNCAVVSEKDYQSGQHVIVRTSPNHKYIFTLRTHPSVVPGSVAFSLPQRKWAGLSIGQEIEVALYSFDKAKQCIGTMTIEIDFLQKKNIDSNPYDTDKMAAEFIQQFNNQAFSVGQQLVFSFNDKLFGLLVKDIEAMDPSILKGEPASGKRQKIEVGLVVGNSQVAFEKAENSSLNLIGKAKTKE,soluble
12,MKAYTKYLTFNTKKRRELIRITDEVKKAVEESEVKEGLCLVSSMHLTSSVIIQDDEEGLHEDIWEWLEKLAPYRPDYKHHRTGEDNGDAHLKNLLTHLQVVLPITNGKLDLGPWQEIFYAEFDGQRPKRVVIKIIGE,soluble
13,MSLYFNKVLGMKEFGKDEKVFYRVAIRAIILQGDKILMVKSNTGDYKFPGGGVEKGETPEETLRREVQEETGYILNEVKEKFGVLIERDRRRRMGCTIFEMTSHYYLCSVIEERGEQHLDKYEEELGFTPIWISLDEVIRENENILNQREKINPWVKRETFVLKKIKEYLNENEGHHHHHH,soluble
14,MEGTLSFVSGFAPAVYRRELFRHRCVTTAPEARAWPRLGLLRANSGARLSRVDITPEIYKRLVSMAKRTEGNFSAVAGAILESYLTAATNRDLRAVIFDMDGVLCDSERLSRAAGVEYFRRYHGVWPTEKDFADFAGTGEAAFLSGVARRYSVKDFDVNKAKEGFFNIYVNEYVSALEPFEGVREFIQQIKTMGLKTALASSADAIKVHANLSAIGFERDMFDFVTRSDEIANKKPAPDIFLAAAEGLGVPPESCVVIEDAPAGVLAAKRARMRCVAVATSVSAQLLWDAGADIVRPAPQYIMLDDIVITDDADASAPASASQE,soluble
15,MMRSHVITHFSMPNIDLHSHSTISDGMLSPSRLLAHAAVRGVNVLALTDHDDIAGLSEASRSAQQENITLIRGVEISVTWHGRTLHILGLGINPEHPPLTEGLKKIRDGRMDRARAIAAQLDKFGIHGSFEGASAQAGISRLIGRTHFARFLVSQGYAKNVKSVFKKYLVKGKPGHVSHVWVSLDEAIGWIRGSGGQAVIAHPARYKLSNDLLEQLLCEFRELGGAGIEVVSSSHTPEQTRQFAALATRMNLYASCGSDYHGPGESYFDLGRLPALPPECTPIWNEWEIPDYAETGATTLNEQSEQTGLQSPGKSV,not soluble
